Laboratory results published in paper PMC5701160.

Biological target: PSI core complex (Haematococcus pluvialis (endogenous in strain K-0084))
Assay: estimate from pigment ratios (HPLC) of the isolated B5 fraction; from Chl a/b and Chl/Car ratios, assuming 3.4 Cars per Lhca subunit and 100 Chl a per PSI core complex

- stoichiometry N (Lhca proteins per P700): 5
Substance: LHCI antenna proteins
